The assay addresses type IV (basement membrane) collagen of Np cells (Peak II) (mouse (endogenous in Np fibrosarcoma cells)). Nature of the assay: radioligand binding.

On to “laminin (from the EHS (Engelbreth-Holm-Swarm) sarcoma) (from UniProt P19137 25-3083; P02469 22-1786; P02468 34-1607) (complex)”, for which the laminin specifically bound (cpm) at 50 ng 125I-laminin added came to 0 cpm and the laminin specifically bound (cpm) at 500 ng 125I-laminin added was determined as 9250 cpm.

(Values after PMC2112662.)
